Measurements: the supplement of paper PMC9170038

Test system: MS2 coat protein
Test: apparent KD of MS2 coat protein; designed switch direction (-1 OFF switch, 1 ON switch): 1; higher = weaker reporter binding
Outline: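 RNA switches sharing common flanks were transcribed by stalled E. coli RNA polymerase on Illumina chips. A doubling series of SNAP-549-labelled MS2 coat protein, from 0.7 or 1.5 nM to 3 µM, was applied in Tris-HCl pH 7.5 buffer with KCl, MgCl2, BSA, DTT, tRNA and Tween-20. Each step lasted 0.8–1.5 h at the bottom of the series and 10–20 min at the top. Normalised cluster fluorescence was curve-fitted, giving apparent KD as the per-design median over clusters.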

[1] = input ligand: microRNA oligo, concentration not stated
[2] = Eterna round: R95, input ligand: microRNA oligo, concentration not stated
[3] = Eterna round: R95, input ligand: FMN 200 uM
[4] = Eterna round: R95, input ligand: none

GGCAAUAUCACAGGAUAUUGGAAAGGAAGUGUACAAGAAGGGUGAUAGUGCCUCAGCAACAUGAGGAUCACCCAUGUACUGAGC [PowerStrip SSNG 1.29] (Eterna round: R96, puzzle: Same State NG 1)
apparent KD of MS2 coat protein (input ligand: FMN 200 uM): 121 nM | apparent KD of MS2 coat protein [1]: 43.6 nM | apparent KD of MS2 coat protein (input ligand: none): 113 nM

GGCAGUCCGACACAGGAUAUGGGUAACGAAACAUGAGGAUCACCCAUGUGGAAACAUCGGGUUGCCUAGAAGGGUGGAAAGAUUG [Xeti] (Eterna round: R96, puzzle: Same State 2)
apparent KD of MS2 coat protein (input ligand: FMN 200 uM): 32.4 nM | apparent KD of MS2 coat protein [1]: 71.6 nM | apparent KD of MS2 coat protein (input ligand: none): 124 nM

GGCUAGGAUAUCUGCAGGAUCACCGCGGAGAAGGAGCUAAGCUAGGAUAUCCGCAGGAUCACCGCGGAGAAGGAGCAUAAUAUA [pwkr ssNG3 DX 2xF5 +2xFMN.15] (Eterna round: R96, puzzle: Same State NG 3)
apparent KD of MS2 coat protein (input ligand: FMN 200 uM): 81.5 nM | apparent KD of MS2 coat protein [1]: 20.3 nM | apparent KD of MS2 coat protein (input ligand: none): 18.1 nM

GGCUAGGAUAUCUGCAGGAUCACCGCGGAGAAGGAGCUAAGCUAGGAUAUCCGCAGGAUCACCGCGGAGAAGGAGCAUCAUCUC [pwkr ssNG3 DX 2xF5 +2xFMN.16] (Eterna round: R96, puzzle: Same State NG 3)
apparent KD of MS2 coat protein (input ligand: FMN 200 uM): 135 nM | apparent KD of MS2 coat protein [1]: 123 nM | apparent KD of MS2 coat protein (input ligand: none): 429 nM

GGUACUAUCACAGGAUAUGCUAUCCUUUGGGUAGCAGAAGGGUGGUACAUGAGGAUCACCCAUGUGGUGCCAGGGCGUGAGCCC [JL SSNG1 1.97] (Eterna round: R96, puzzle: Same State NG 1)
apparent KD of MS2 coat protein (input ligand: FMN 200 uM): 200 nM | apparent KD of MS2 coat protein [1]: 67.9 nM | apparent KD of MS2 coat protein (input ligand: none): 318 nM

GGUAGGUUACUACCAAACAUGAGGAUCACCCAUGUUAAUGGGAAGGAUAUGGUACCUAUUUGGUACCAGAAGGUCCAAAUAAUU [Mat - Same State NG 3 - JL Mod - D97] (Eterna round: R96, puzzle: Same State NG 3)
apparent KD of MS2 coat protein (input ligand: FMN 200 uM): 73.2 nM | apparent KD of MS2 coat protein [1]: 261 nM | apparent KD of MS2 coat protein (input ligand: none): 596 nM

GGUAGGUUACUACCAAACAUGAGGAUCACCCAUGUUGAUGGGAAGGAUAUGGUACCUUUUAGGUACCAGAAGGUCUAAUCGAUC [NGss mod of JL's mod of Fisker 4] (Eterna round: R96, puzzle: Same State NG 3)
apparent KD of MS2 coat protein (input ligand: FMN 200 uM): 120 nM | apparent KD of MS2 coat protein [1]: 115 nM | apparent KD of MS2 coat protein (input ligand: none): 166 nM

GGUAGGUUACUACCAAACUACAUGAGGAUCACCCAUGUGUGGGAGGAUAUGGUACCUAUUUGGUACCAGAAGGUCCAAUUAAUU [Fiskers NG3ss - 6] (Eterna round: R96, puzzle: Same State NG 3)
apparent KD of MS2 coat protein (input ligand: FMN 200 uM): 108 nM | apparent KD of MS2 coat protein [1]: 106 nM | apparent KD of MS2 coat protein (input ligand: none): 124 nM

GGUAGGUUACUACCAGACAUGAGGAUCACCCAUGUAAGUGGGAAGGAUAUGGUACCGUUUCGGUACCAGAAGGUCCUAUGUAAG [JL SSNG3 1.45] (Eterna round: R96, puzzle: Same State NG 3)
apparent KD of MS2 coat protein (input ligand: FMN 200 uM): 269 nM | apparent KD of MS2 coat protein [1]: 88.7 nM | apparent KD of MS2 coat protein (input ligand: none): 936 nM

GGUAUACAUGAGGAUCACCCAUGUCGUAUGACAUGAGGAUAUGUACAGACUUCGGUCUGUACAGAAGGCGUGUGUC [SS1 - 1011 Omei Mod 6] (puzzle: Same State 1)
apparent KD of MS2 coat protein [2]: 307 nM

GGUAUCAGCACAGGAUAUGCUAUCCUUUGGGUAGCAGAAGGGUGGACAUGAGGAUCACCCAUGUGGGUGCCAGGGCGUGAGCCC [JL SSNG1 1.86] (Eterna round: R96, puzzle: Same State NG 1)
apparent KD of MS2 coat protein (input ligand: FMN 200 uM): 426 nM | apparent KD of MS2 coat protein [1]: 75.9 nM | apparent KD of MS2 coat protein (input ligand: none): 323 nM

GGUAUCAUCACAGGAUAUGCUAUCCUUUGGGUAGCAGAAGGGUGGAACAUGAGGAUCACCCAUGUGGUGCCAGGGCGUGAGCCC [JL SSNG1 1.89] (Eterna round: R96, puzzle: Same State NG 1)
apparent KD of MS2 coat protein (input ligand: FMN 200 uM): 177 nM | apparent KD of MS2 coat protein [1]: 583 nM | apparent KD of MS2 coat protein (input ligand: none): 1880 nM

GGUAUGGACACAGGAUAUGCUAUCCUUUGGGUAGCAGAAGGGUGAACAUGAGGAUCACCCAUGUACGUGCCAGGGCGUGAGCCC [JL SSNG1 1.78] (Eterna round: R96, puzzle: Same State NG 1)
apparent KD of MS2 coat protein (input ligand: FMN 200 uM): 913 nM | apparent KD of MS2 coat protein [1]: 278 nM | apparent KD of MS2 coat protein (input ligand: none): 1620 nM

GGUAUUAACACAGGAUAUGCUUACGAAACGUAAGCAGAAGGGUGGACAUGAGGAUCACCCAUGUUUGUACCAGGGCGUGAGCCC [JL SSNG1 1.71] (Eterna round: R96, puzzle: Same State NG 1)
apparent KD of MS2 coat protein (input ligand: FMN 200 uM): 68.5 nM | apparent KD of MS2 coat protein [1]: 271 nM | apparent KD of MS2 coat protein (input ligand: none): 652 nM

GGUCCAGCCUGAGCUGGACAAAAGCAUGUACAUGAGGAUCACCCAUGUUCAUGUACAAGCUUUUUGCUCGUCUUAUA [salish99_208a_r3_045] (puzzle: Sensor for hsa-mir-208a)
apparent KD of MS2 coat protein [3]: 542 nM | apparent KD of MS2 coat protein [2]: 15.4 nM | apparent KD of MS2 coat protein [4]: 696 nM

GGUCCAGCCUGAGCUGGACAAAAGCAUGUACAUGAGGAUCACCCAUGUUCAUGUACAAGCUUUUUGCUCGUCUUAUG [salish99_208a_r3_053] (puzzle: Sensor for hsa-mir-208a)
apparent KD of MS2 coat protein [3]: 693 nM | apparent KD of MS2 coat protein [2]: 18.1 nM | apparent KD of MS2 coat protein [4]: 785 nM

GGUCCAGCCUGAGCUGGACUAUAGUAUGUACAUGAGGAUCACCCAUGUCAUGUAUAAGUAUGUUGUUUGUCUUGAAA [Sensorship 4 - Jieux - Sensor for hsa-mir-208a] (puzzle: Sensor for hsa-mir-208a)
apparent KD of MS2 coat protein [3]: 23.6 nM | apparent KD of MS2 coat protein [2]: 20.1 nM | apparent KD of MS2 coat protein [4]: 24.2 nM

GGUCCAUCAUGAGGAUAUGGCACCUUAUUGGUGCCAGAAGGCAUGUCUAUAGACAUGAGGAUCACCCAUGUAAUAAAUUGGACC [Eli NG1ss - 93] (Eterna round: R96, puzzle: Same State NG 1)
apparent KD of MS2 coat protein (input ligand: FMN 200 uM): 30.2 nM | apparent KD of MS2 coat protein [1]: 344 nM | apparent KD of MS2 coat protein (input ligand: none): 831 nM

GGUCCAUCAUGAGGAUAUGGCACCUUAUUGGUGCCAGAAGGCAUGUCUAUUAGACAUGAGGAUCACCCAUGUAUAAAUUGGACC [Eli NG1ss - 91] (Eterna round: R96, puzzle: Same State NG 1)
apparent KD of MS2 coat protein (input ligand: FMN 200 uM): 108 nM | apparent KD of MS2 coat protein [1]: 192 nM | apparent KD of MS2 coat protein (input ligand: none): 1130 nM

GGUCGGACCUACAUGAGGAUCACCCAUGUUCCGGAAACGGCAUAGGAUAUCUGUCCGAAAAGGUCAGAGAAGGGUGAACCGACC [Fiskers NG3ss - 74] (Eterna round: R96, puzzle: Same State NG 3)
apparent KD of MS2 coat protein (input ligand: FMN 200 uM): 145 nM | apparent KD of MS2 coat protein [1]: 160 nM | apparent KD of MS2 coat protein (input ligand: none): 162 nM

GGUCGGACUCACAUGAGGAUCACCCAUGUUGCGGAAACGCGGCAGGAUAUCUGUCCGAAAAGGUCAGAGAAGGGUCAACCGACC [Fiskers NG3ss - 62] (Eterna round: R96, puzzle: Same State NG 3)
apparent KD of MS2 coat protein (input ligand: FMN 200 uM): 644 nM | apparent KD of MS2 coat protein [1]: 141 nM | apparent KD of MS2 coat protein (input ligand: none): 199 nM

GGUGAGAGAGUCAAGGAUAUUAAAGGAGAGACAUGAGGAUCACCCAUGUAAGAGAGAGAGGAGAGUGAGAAGGUGAAGAGAGUGG [Altered State 2-25 - Jieux - Same State 2] (puzzle: Same State 2)
apparent KD of MS2 coat protein [3]: 30.4 nM | apparent KD of MS2 coat protein [2]: 25 nM | apparent KD of MS2 coat protein [4]: 60.6 nM

GGUGCCAAAUAAGCCUACAUGAGGAUCACCCAUGUAUGUAGGCAGGAUAUCGUUUGCAAAGCAAACGAGAAGGGCUGAGGCACC [Mat - Same State NG 3 - JL Mod - D53] (Eterna round: R96, puzzle: Same State NG 3)
apparent KD of MS2 coat protein (input ligand: FMN 200 uM): 26.1 nM | apparent KD of MS2 coat protein [1]: 42.7 nM | apparent KD of MS2 coat protein (input ligand: none): 81 nM

GGUGCGAAAUAAGCCUACAUGAGGAUCACCCAUGUAUGUAGGCAGGAUAUCGUUUGCAAAGCAAACGAGAAGGGCUGACGCACC [Mat - Same State NG 3 - JL Mod - D50] (Eterna round: R96, puzzle: Same State NG 3)
apparent KD of MS2 coat protein (input ligand: FMN 200 uM): 31.1 nM | apparent KD of MS2 coat protein [1]: 52.6 nM | apparent KD of MS2 coat protein (input ligand: none): 94.5 nM

GGUGCGAAUAAAGCCUACAUGAGGAUCACCCAUGUAUGUAGGCAGGAUAUCGUUUGCAAAGCAAACGAGAAGGGCUGUCGCACC [Mat - Same State NG 3 - JL Mod - D46] (Eterna round: R96, puzzle: Same State NG 3)
apparent KD of MS2 coat protein (input ligand: FMN 200 uM): 29.9 nM | apparent KD of MS2 coat protein [1]: 55.2 nM | apparent KD of MS2 coat protein (input ligand: none): 100 nM

GGUGGGUUACUACCCACACAUGAGGAUCACCCAUGUAUUGGGAAGGAUAUGGUGCCUGUGUGGUACCAGAAGGUCCUGGAGGUG [SS-NG3-LRO20] (Eterna round: R96, puzzle: Same State NG 3)
apparent KD of MS2 coat protein (input ligand: FMN 200 uM): 1350 nM | apparent KD of MS2 coat protein [1]: 237 nM | apparent KD of MS2 coat protein (input ligand: none): 1590 nM

GUACAGAUCACAGGAUAUCACGUCGAAUAGACGUGAGAAGGGUGAUCACACAUGAAUAUUAAUACAUGAGGAUCACCCAUGUAC [SSNG1/16-A1] (Eterna round: R96, puzzle: Same State NG 1)
apparent KD of MS2 coat protein (input ligand: FMN 200 uM): 71 nM | apparent KD of MS2 coat protein [1]: 14.1 nM | apparent KD of MS2 coat protein (input ligand: none): 20.4 nM

GUACAGAUUAUAGGAUAUCACGUCGAAUAGACGUGAGAAGGAUAAUCCCACAUGAAUAUUAAUACAUGAGGAUCACCCAUGUAC [SSNG1/18-B1] (Eterna round: R96, puzzle: Same State NG 1)
apparent KD of MS2 coat protein (input ligand: FMN 200 uM): 16.8 nM | apparent KD of MS2 coat protein [1]: 19.8 nM | apparent KD of MS2 coat protein (input ligand: none): 20.4 nM

GUACAUAUUAUAGGAUAUCACGUCGUUUAGACGUGAGAAGGAUAAUCCCACAUGAAUAUUAAUACAUGAGGAUCACCCAUGUAC [SSNG1/18-A3] (Eterna round: R96, puzzle: Same State NG 1)
apparent KD of MS2 coat protein (input ligand: FMN 200 uM): 64.2 nM | apparent KD of MS2 coat protein [1]: 48 nM | apparent KD of MS2 coat protein (input ligand: none): 63.9 nM
